# Test results reported in PMC10469194 (Scientific Reports, 2023).
# B1: REGN10987-based FabH3 (GS-G4 linker) (other)
# VH: QVQLVESGGGVVQPGRSLRLSCAASGFTFSNYAMYWVRQAPGKGLEWVAVISYDGSNKYYADSVKGRFTISRDNSKNTLYLQMNSLRTEDTAVYYCASGSDYGDYLLVYWGQGTLVTVSS
# VL: QSALTQPASVSGSPGQSITISCTGTSSDVGGYNYVSWYQQHPGKAPKLMIYDVSKRPSGVSNRFSGSKSGNTASLTISGLQSEDEADYYCNSLTSISTWVFGGGTKLTVL
# notes: VH domain of REGN10987, as the VH of the heavy chain of m1; flexible glycine-serine linker, printed only as the formula 'GS-G4' (G: glycine, S: serine); spelled out from that formula; IgG1 heavy chain constant 3 (CH3) domain; VL domain of REGN10987, as the VL of the light chain of m1; E356 is 239 and D399 is 282 in P01857; also called REGN10987 FabH3; FabH3 format; copies: 1 + 1
# B2: REGN10987 wild type Fab (Fab, V domains shown)
# VH: B1 VH
# VL: B1 VL
# notes: Fab heavy chain (VH-CH1) of REGN10987; Fab light chain (VL-CL, lambda) of REGN10987; Heavy and light chain are covalently linked (one mass of 47,892 Da by ESI-MS); also called REGN10987 Fab; REGN10987-Fab
# Biological target: T1, mutated-truncated DsbC (mtDsbC) tagged SARS-CoV-2 Receptor Binding Domain (RBD) (Severe acute respiratory syndrome …, UniProt P0DTC2, biotin (biotinylated, site not stated))
# T1 construct: also called mtDsbC-SARS-CoV-2 wild type; SARS-CoV-2 RBD
# Assay: BLI; biotinylated antigen (5 µg/mL) immobilised on Streptavidin biosensors; five concentrations of Fab or FabH3 (3-243 nM); Octet RED384, 30 °C, 1000 rpm, 1X PBS Kinetics Buffer; global fit, 1:1 interaction model
# Conditions: both partners purified
row,Binder,Kd [nM]
1,B1,20 ± 2.6
2,B2,43 ± 4.4
